Results: patent US20230272048A1 (UNIVERSITY OF MELBOURNE, published 2023)

B1: MEL-1872 (antibody)
VH: KVQLRESGPSLVKPSQTLSLTCTASGFSLSDKAVGWVRQAPGQPLEWLGTIDTTGNAVYNPGLKSRLSITKDNSKSQVSLSLSSVTTEDSATYHCSTVHQKTRRSCPSDYSFICDCEGTGSHCCRASNCPYYCNYGRDRMCTGRSNIHEWHVDAWGQGLLVTVSS
VL: QAVLTQPSSVSGSLGQRVSTTCSGSSSNVGNGYVSWYQLIPGSAPRTLIYGDTSRASGVPDRFSGSRSGNTVTLTISSLQAEDEADYFCASAEDGSSNAVFGRGTTLTV
notes: also called H 1872; BrNAb MEL-1872
B2: MEL-1842 (antibody)
VH: KVQLQESGPSLVKPSQTLSLTCTASGFSLSDKAVGWVRQAPGQALEWLGSIDTGGNADYNPGLKSRLSITKDNAKSQVSLSVSSVTTEGSATYYCSTVHQKTLRSCPSDYPYICDCEDTGSHCCRATNCPYYCNHGRDRMCTGRTYTYEWHVEAWGQGLLVTVSS
VL: B1 VL
notes: also called H 1842; BrNAb MEL-1842
B3: MEL-2129 (antibody)
VH: KVQLRESGPSLVKPSQTLSLTCTASGFSLSDKAVGWVRQAPGKALEWLGSIDTGGNAGYNPGLKSRLSITKGNSKSQVSLSVSSVTTEDSATYYCSTVHQKTRRSCPVDYYYSCDCEGSGSHCCSASNCPYYCKYGRDRVCTDKHTYSYEWYVDAWGQGLLVTVSS
VL: B1 VL
notes: also called BrNAb MEL-2129

Key:
E87A = target: T1, E87A (HIV-1); assay: capture ELISA on Env of lysed AD8 pseudovirus, % of WT
T1 construct: full-length Env of lysed pseudovirus; HXB-2 numbering

K121A = target: T2, K121A (HIV-1); assay: as above
T2 construct: full-length Env of lysed pseudovirus; HXB-2 numbering

L179A = target: T3, L179A (HIV-1); assay: as above
T3 construct: full-length Env of lysed pseudovirus; HXB-2 numbering

D185A = target: T4, D185A (HIV-1); assay: as above
T4 construct: full-length Env of lysed pseudovirus; HXB-2 numbering

N197A = target: T5, N197A (HIV-1); assay: as above
T5 construct: full-length Env of lysed pseudovirus; HXB-2 numbering

N262A = target: T6, N262A (HIV-1); assay: as above
T6 construct: full-length Env of lysed pseudovirus; HXB-2 numbering

N276A = target: T7, N276A (HIV-1); assay: as above
T7 construct: full-length Env of lysed pseudovirus; HXB-2 numbering

K282A = target: T8, K282A (HIV-1); assay: as above
T8 construct: full-length Env of lysed pseudovirus; HXB-2 numbering

N283A = target: T9, N283A (HIV-1); assay: as above
T9 construct: full-length Env of lysed pseudovirus; HXB-2 numbering

P313A = target: T10, P313A (HIV-1); assay: as above
T10 construct: full-length Env of lysed pseudovirus; HXB-2 numbering

A329K = target: T11, A329K (HIV-1); assay: as above
T11 construct: full-length Env of lysed pseudovirus; HXB-2 numbering

Q363A = target: T12, Q363A (HIV-1); assay: as above
T12 construct: full-length Env of lysed pseudovirus; HXB-2 numbering

S364A = target: T13, S364A (HIV-1); assay: as above
T13 construct: full-length Env of lysed pseudovirus; HXB-2 numbering

S365A = target: T14, S365A (HIV-1); assay: as above
T14 construct: full-length Env of lysed pseudovirus; HXB-2 numbering

P369A = target: T15, P369A (HIV-1); assay: as above
T15 construct: full-length Env of lysed pseudovirus; HXB-2 numbering

M373A = target: T16, M373A (HIV-1); assay: as above
T16 construct: full-length Env of lysed pseudovirus; HXB-2 numbering

R419A = target: T17, R419A (HIV-1); assay: as above
T17 construct: full-length Env of lysed pseudovirus; HXB-2 numbering

G472A = target: T18, G472A (HIV-1); assay: as above
T18 construct: full-length Env of lysed pseudovirus; HXB-2 numbering

M475A = target: T19, M475A (HIV-1); assay: as above
T19 construct: full-length Env of lysed pseudovirus; HXB-2 numbering

R476A = target: T20, R476A (HIV-1); assay: as above
T20 construct: full-length Env of lysed pseudovirus; HXB-2 numbering

Jo-1 = target: T21, Jo-1 (human, UniProt P12081 1-509); assay: single autoantigen ELISA (AESKULISA ANA-8Pro), FIG. 9A
T21 sequence (looked up): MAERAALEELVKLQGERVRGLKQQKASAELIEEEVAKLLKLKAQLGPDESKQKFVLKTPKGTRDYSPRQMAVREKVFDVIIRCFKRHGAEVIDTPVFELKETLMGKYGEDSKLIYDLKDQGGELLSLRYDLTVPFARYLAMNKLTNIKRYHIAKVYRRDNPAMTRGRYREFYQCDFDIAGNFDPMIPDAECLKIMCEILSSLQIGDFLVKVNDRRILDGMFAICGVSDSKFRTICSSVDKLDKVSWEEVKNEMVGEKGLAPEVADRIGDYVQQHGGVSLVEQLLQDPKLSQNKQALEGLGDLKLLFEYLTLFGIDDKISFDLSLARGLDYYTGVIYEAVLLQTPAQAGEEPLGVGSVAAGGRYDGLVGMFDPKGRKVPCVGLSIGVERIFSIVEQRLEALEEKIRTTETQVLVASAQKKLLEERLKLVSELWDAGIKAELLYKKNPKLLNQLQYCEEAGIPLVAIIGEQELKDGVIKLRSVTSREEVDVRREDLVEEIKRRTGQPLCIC
Source text: (§1) Polyreactivity assay: Single autoantigen reactivity. […] ANA-8Pro (Aesku) for U1-ribonucleoprotein (RNP), SnRNP/Sm, Sm, SS-A, SS-B, Jo-1, Scl-70, and CenpB. The 96 wells were coated with these cellular and nuclear antigens for the qualitative detection of mAbs reactivity. The cut-off calibrator, negative control and positive control were provided by the manufacturer.

CenpB = target: T22, CenpB (human, UniProt P07199 1-599); assay: as above
T22 sequence (looked up): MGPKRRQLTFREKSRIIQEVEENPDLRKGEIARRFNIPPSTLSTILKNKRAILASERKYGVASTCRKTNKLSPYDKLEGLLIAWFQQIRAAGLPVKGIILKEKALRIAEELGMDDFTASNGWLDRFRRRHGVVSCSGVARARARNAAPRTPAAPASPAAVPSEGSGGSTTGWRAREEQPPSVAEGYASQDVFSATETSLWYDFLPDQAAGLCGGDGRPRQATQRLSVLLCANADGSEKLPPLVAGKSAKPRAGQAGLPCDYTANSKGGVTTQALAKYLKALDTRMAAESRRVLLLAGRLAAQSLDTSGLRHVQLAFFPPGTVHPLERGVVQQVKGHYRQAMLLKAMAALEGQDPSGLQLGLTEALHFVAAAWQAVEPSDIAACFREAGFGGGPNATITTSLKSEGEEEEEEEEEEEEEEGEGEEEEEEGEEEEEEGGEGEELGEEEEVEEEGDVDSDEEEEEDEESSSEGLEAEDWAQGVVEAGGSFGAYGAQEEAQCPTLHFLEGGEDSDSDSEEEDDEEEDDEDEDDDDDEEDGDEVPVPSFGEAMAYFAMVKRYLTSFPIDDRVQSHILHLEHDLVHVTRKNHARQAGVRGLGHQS
Source text: as §1

Row | Binder | Env binding (%) at antibody EC50 (E87A) [%] | Env binding (%) at antibody EC50 (K121A) [%] | Env binding (%) at antibody EC50 (L179A) [%] | Env binding (%) at antibody EC50 (D185A) [%] | Env binding (%) at antibody EC50 (N197A) [%] | Env binding (%) at antibody EC50 (N262A) [%] | Env binding (%) at antibody EC50 (N276A) [%] | Env binding (%) at antibody EC50 (K282A) [%] | Env binding (%) at antibody EC50 (N283A) [%] | Env binding (%) at antibody EC50 (P313A) [%] | Env binding (%) at antibody EC50 (A329K) [%] | Env binding (%) at antibody EC50 (Q363A) [%] | Env binding (%) at antibody EC50 (S364A) [%] | Env binding (%) at antibody EC50 (S365A) [%] | Env binding (%) at antibody EC50 (P369A) [%] | Env binding (%) at antibody EC50 (M373A) [%] | Env binding (%) at antibody EC50 (R419A) [%] | Env binding (%) at antibody EC50 (G472A) [%] | Env binding (%) at antibody EC50 (M475A) [%] | Env binding (%) at antibody EC50 (R476A) [%] | also measured
1 | B1 | 87 | 94 | 110 | 99 | 92 | 27 | 100 | 63 | 76 | 100 | 38 | 93 | 75 | 70 | 88 | 102 | 108 | 29 | 82 | 57 | 
2 | B2 | 108 | 107 | 110 | 100 | 93 | 44 | 100 | 84 | 82 | 100 | 101 | 97 |  | 37 | 94 | 102 | 110 | 39 | 99 | 81 | binding result (Jo-1): no binding (tested: 100 µg/ml); binding result (CenpB): no binding (tested: 100 µg/ml)
3 | B3 | 81 | 80 | 101 | 93 | 82 | 18 | 89 | 85 | 64 | 84 | 46 | 79 | 42 | 126 | 81 | 92 | 93 | 15 | 63 | 64 | binding result (Jo-1): no binding (tested: 100 µg/ml); binding result (CenpB): no binding (tested: 100 µg/ml)
